Data on two molecules can be found in patent publication US8530168B2, “Fusion protein comprising a Caspase domain and a nuclear hormone receptor binding domain and methods and uses thereof” (Helmholtz Zentrum Munich Deutsches Forschungszentrum fuer …, priority 2007, dated 2013).

Data set [1] concerns M5/N9 cells expressing myrCasp8-ER(T2). The experiment in a line: Ligand dose response, MTT assay, in cells expressing myrCasp8-ER(T2). The format is cell-based, murine. To be noted: 48 hours, data not shown. Here is the method: (b) Transient cotransfection of a β-galactosidase reporter with a Cre-ER(T2), myrCasp8-ER(T2), or Casp9-ER(T2) expression plasmid into murine M5/N9 (black columns), human HeLa (grey columns) or zebrafish Pac2 (open columns) cells. 12 h following transfection, cells were cultured for 36 h with 4-OH-tamoxifen at 10^−8 M and the activity of β-galactosidase in cell lysates was determined. Values obtained from transfections of the Cre-ER(T2) vector were defined as reference.
To quantify 4-OH-tamoxifen-inducible cell death, we applied the colorimetric MTT assay (Mossman, J. Immunol. Methods, 65, 55 (1983)) allowing the quantification of cell survival. Cells (4·10^3) were plated on 96-well plates. The assay was carried out in three replicas for each sample treated with and without 4-OH-tamoxifen. After 12 h, medium was replaced either with fresh medium or with medium supplemented with 10^−8 M 4-OH-tamoxifen. […] The crystals were dissolved in 150 μl 0.04 N HCl/isopropanol to give a homogeneous blue solution suitable for absorbance measurement at a wavelength of 570 nm on the Synergy™ HT Multi-Detection Microplate Reader (BioTek).
Cell viability was determined following 48 hours of incubation with the respective ligand at concentrations ranging from 10^−6 M to 10^−12 M by using the MTT assay. […]

Data set [2] concerns MEF5/N9 cells. The experiment in a line: MTT cytotoxicity assay of stably transfected MEF5/N9 clones. Format: cell-based, mouse. To be noted: 10^−8 M 4-OH-tamoxifen, 48 h. Here is the method:
(§1) To generate stably transfected MEF5/N9 cells, 2·10^6 cells were coelectroporated with 32 μg ER(T2) fusion plasmid DNA linearised with ScaI and 8 μg pPgk-hygro-pA plasmid DNA linearised with XhoI and plated into two 96-well plates. The cells were grown in DMEM medium (Invitrogen) supplemented with 2 mM Glutamine and 10% fetal calf serum at 37° C., 5% CO2 in humid atmosphere, and passaged upon trypsinization. Two days after transfection the medium was supplemented with 250 U/ml of hygromycin (Calbiochem) for the selection of stable integrants. Upon the growth of resistant colonies these were individually expanded in the presence of hygromycin.
To quantify 4-OH-tamoxifen-inducible cell death, we applied the colorimetric MTT assay (Mossman, J. Immunol. Methods, 65, 55 (1983)) allowing the quantification of cell survival. Cells (4·10^3) were plated on 96-well plates. The assay was carried out in three replicas for each sample treated with and without 4-OH-tamoxifen. After 12 h, medium was replaced either with fresh medium or with medium supplemented with 10^−8 M 4-OH-tamoxifen. Following 48 h of 4-OH-tamoxifen treatment, sterile filtered MTT reagent in PBS (Sigma) was added at the concentration of 0.5 mg/ml. Incubation occurred for 4 hours at 37° C. With ongoing reaction time, dark violet MTT formazan crystals appeared on the bottom of the wells containing living cells. The crystals were dissolved in 150 μl 0.04 N HCl/isopropanol to give a homogeneous blue solution suitable for absorbance measurement at a wavelength of 570 nm on the Synergy™ HT Multi-Detection Microplate Reader (BioTek).

In data set [3] the test system is MEF5/N9 cells. In words: Transient cotransfection of ER(T2) fusion expression vectors with β-galactosidase reporter; β-galactosidase activity in lysates. The format is cell-based, mouse. As to conditions: no 4-OH-tamoxifen; transient transfection 50 or 100 ng vector; relative to Cre-ER(T2) without 4-OH-tamoxifen.
Data set [4] has as its system MEF5/N9 cells. The experiment in a line: Visible phenotypic changes / viability of stably transfected MEF5/N9 clones on 4-OH-tamoxifen treatment. The format is cell-based, mouse. To be noted: 10^−8 M 4-OH-tamoxifen, 24 h. How it is done:
as §1
To examine 4-OH-tamoxifen-dependent cell death, 1·10^5 MEF5/N9 cells expressing ER(T2) fusion proteins were plated into each well of a six-well plate. The following day, for each sample the medium in two of four individual wells were replaced with medium supplemented with 10^−8 M 4-hydroxy-tamoxifen. 24 hours after induction with 4-OH-tamoxifen, cells were photographed through a Leica DMI6000B fluorescence microscope with phase contrast either at 10-fold or 20-fold magnification.
Since the responsiveness of the clones, transfected with the same construct, to 4-OH-tamoxifen differed only slightly from each other, only the results obtained from one clone for each construct are shown in the figure.

The test system of data set [5] is MEF5/N9 cells. The experiment in a line: Transient cotransfection of ER(T2) fusion expression vectors with β-galactosidase reporter; β-galactosidase activity in lysates. To be noted: 10^−8 M 4-OH-tamoxifen, 48 h; relative to Cre-ER(T2) without 4-OH-tamoxifen. The format is cell-based, mouse. How it is done: The transformed mouse embryonic fibroblast cell line MEF5/N9 (Schwenk et al., Nucleic Acids Research, 26(6) 1427-1432 (1998)) was obtained from Michel Aguet (University of Zurich, Switzerland). The cells were grown in DMEM medium (Life Technologies) supplemented with 2 mM […] and 10% fetal calf serum at 37° C., 5% CO2 in humid atmosphere and passaged upon trypsinization. One day before transient transfection 4·10^4 cells were plated into a 24-well plate (Falcon). For the transient transfection of MEF5/N9 cells with plasmids, each well received into 500 μl of medium a total amount of 150 ng or 200 ng supercoiled plasmid DNA complexed before with the FuGene6 transfection reagent (Roche Diagnostics GmbH, Mannheim, Germany) according to the manufacturer's protocol. Each 150 ng or 200 ng DNA preparation (FIG. 2 sample 1 to 11) contained 100 ng of the β-Galactosidase expression vector pCMV-β-gal-pA (pCMVβ, Clontech, FIG. 1G, SEQ ID NO: 56), and 100 ng of the fusion ER(T2) expression vectors to be tested (FIG. 2 sample 3-7, 10-11) and the control plasmids (FIG. 2 sample 1-3), except for the samples with the plasmids pCAG-Casp9full-ER(T2)-bpA (FIG. 2 sample 8) and pCAG-Casp9trunc-ER(T2)-bpA (FIG. 2 sample 9), respectively, that received 50 ng of the test vector. For each sample to be tested four individual wells were transfected. Five hours after the addition of the DNA preparations each well received additional 500 μl of growth medium. The following day, the medium of two wells of each sample was replaced by fresh medium. The other two wells received medium containing 10^−8 M 4-hydroxy-tamoxifen (Sigma). 48 hours after induction with 4-OH-tamoxifen, the cells of each well were lysed with 200 μl lysate reagent supplemented with protease inhibitors (Roche Diagnostics GmbH). The lysates were centrifuged and 50 μl were used to determine the β-galactosidase activities using the β-galactosidase reporter gene assay (Roche Diagnostics GmbH) according to the manufacturer's protocol in a microplate luminometer (Berthold Detection Systems GmbH). The mean value and standard deviation of the samples was calculated from the β-galactosidase RLU values obtained from the two transfected wells of each sample. The relative β-galactosidase activity was obtained by comparison to the negative control (pCAG-Cre-ER(T2)-bpA) without 4-OH-tamoxifen.
To investigate the cell death effect of the different ER(T2) fusion constructs quantitatively, we performed transient cotransfections of the ER(T2) fusion protein expression vectors together with a fixed amount of a reporter plasmid coding for β-galactosidase in MEF5/N9 fibroblast cells. Transfected cells were treated 12 hours after transfection with 4-OH-tamoxifen at a concentration of 10^−8 M. Following 48 hours of 4-OH-tamoxifen induction, the cells from the various samples were lysed and the activity of β-galactosidase in the lysates was determined by a chemiluminescence assay and expressed in “Relative Light Units” (RLU) (FIG. 2). As positive controls for 4-OH-tamoxifen-inducible cell death, we prepared samples transfected with the constructs pCAG-HAFas-ER(T2) or pCAG-MFas-ER(T2) together with the reporter plasmid and treatment with 4-OH-tamoxifen. As negative control for this assay served samples which received the reporter plasmid together with the expression vector pCAG-Cre-ER(T2) and that were treated with 4-OH-tamoxifen.
To determine the relative activity of the tested ER(T2) fusion constructs inducing apoptosis in the presence of 4-OH-tamoxifen, the RLU values of β-galactosidase activity were divided individually for each sample by the RLU value obtained from the sample which received the plasmid pCAG-Cre-ER(T2) but was not treated with 4-OH-tamoxifen (defined as negative control). The relative activity of the tested Caspase- or bax-ER(T2) fusion proteins was then compared to the negative control for 4-OH-tamoxifen-dependent cell death defined as an activity of 1.

Take `C[C@]12CC[C@@H]3c4ccc(O)cc4CC[C@H]3[C@@H]1CC[C@@H]2O` [E2, 17-β-estradiol]: the “ligand concentration required to induce cell death” value in data set [1] is ≥ 10^−7 M.

B1: MFas-ER(T2): membrane-targeting signal peptide, transmembrane and intracellular domain of murine Fas fused to ER(T2); planned positive control (protein)
chain: MLWIWAVLPLVLAGSQLRVHTTSNTNCRKQSPRNRLWLLTILVLLIPLVFIYRKYRKRKCWKRRQDDPESRTSSRETIPMNASNLSLSKYIPRIAEDMTIQEAKKFARENNIKEGKIDEIMHDSIQDTAEQKVQLLLCWYQSHGKSDAYQDLIKGLKKAECRRTLDKFQDMVQKDLGKSTPDTGNENEGQCLVEPSAGDMRAANLWPSPLMIKRSKKNSLALSLTADQMVSALLDAEPPILYSEYDPTRPFSEASMMGLLTNLADRELVHMINWAKRVPGFVDLTLHDQVHLLECAWLEILMIGLVWRSMEHPVKLLFAPNLLLDRNQGKCVEGMVEIFDMLLATSSRFRMMNLQGEEFVCLKSIILLNSGVYTFLSSTLKSLEEKDHIHRVLDKITDTLIHLMAKAGLTLQQQHQRLAQLLLILSHIRHMSNKGMEHLYSMKCKNVVPLYDLLLEAADAHRLHAPTSRGGASVEETDQSHLATAGSTSSHSLQKYYITGEAEGFPATA
modifications: fusion protein MFas-ER(T2)
notes: membrane-targeting signal peptide, transmembrane and intracellular domain of murine Fas fused to ER(T2); planned positive control
Take B1: the “cell viability in the presence of 4-OH-tamoxifen (MTT)” value in the data set on MEF5/N9 cells [2] was “not affected by treatment with 4-OH-tamoxifen”. In the data set on MEF5/N9 cells [3], the “basal toxicity: relative β-galactosidase activity compared to the negative control in absence of 4-OH-tamoxifen” value is on record as 60%. In the data set with MEF5/N9 cells [4], the “4-OH-tamoxifen-dependent cell death, phenotype of stable clones” value is recorded as “not affected by the treatment with 4-OH-tamoxifen”. Moreover, in the data set on MEF5/N9 cells [5], the “relative β-galactosidase activity in presence of 4-OH-tamoxifen compared to the negative control” value worked out at 26%.
